The source of these data is patent US20060269997A1 (Genentech, published 2006).

B1: native VEGF (1-109) (ligand, human, UniProt P15692 207-315, looked up)
chain: APMAEGGGQNHHEVVKFMDVYQRSYCHPIETLVDIFQEYPDEIEYIFKPSCVPLMRCGGCCNDEGLECVPTEESNITMQIMRIKPHQGQHIGEMSFLQHNKCECRPKKD
modifications: 125I-labeled where used as tracer
B2: Glu 64* (ligand)
chain: B1 chain with E64A
B3: His 86** (ligand)
chain: B1 chain with H86A
B4: Asp 63** (ligand)
chain: B1 chain with D63A
B5: Ile 46* (ligand)
chain: B1 chain with I46A
B6: Arg 105 (ligand)
chain: B1 chain with R105A
B7: Gln 22** (ligand)
chain: B1 chain with Q22A
B8: Glu 103 (ligand)
chain: B1 chain with E103A
B9: Gln 79* (ligand)
chain: B1 chain with Q79A
B10: Ile 91 (ligand)
chain: B1 chain with I91A
B11: Gly 65** (ligand)
chain: B1 chain with G65A
B12: Gln 89 (ligand)
chain: B1 chain with Q89A
B13: Ile 83* (ligand)
chain: B1 chain with I83A
B14: Ile 43* (ligand)
chain: B1 chain with I43A
B15: LK-VRB-19s (ligand, human, UniProt P15692-4 27-135, looked up)
chain: B1 chain with M18E, Q22R, Y25S, D63S, G65M, L66R
notes: one of the two is probably misprinted
B16: LK-VRB-20s (ligand, human, UniProt P15692-4 27-135, looked up)
chain: B1 chain with Y21L, Q22R, Y25S, D63S, G65M, L66R
B17: LK-VRB-21s (ligand, human, UniProt P15692-4 27-135, looked up)
chain: B1 chain with M18E, Y21L, Q22R, Y25S, D63S
B18: LK-VRB-11s (ligand, human, UniProt P15692-4 27-135, looked up)
chain: B1 chain with M18E, Y21L, D63S, G65M, L66R
B19: LK-VRB-23s (ligand, human, UniProt P15692-4 27-135, looked up)
chain: B1 chain with M18E, Y21L, Q22R, Y25S, L66R
B20: LK-VRB-26s (ligand, human, UniProt P15692-4 27-135, looked up)
chain: B1 chain with M18E, Y21L, Q22R, Y25S, G65M, L66R
B21: LK-VRB-16s (ligand, human, UniProt P15692-4 27-135, looked up)
chain: B1 chain with Q22R, Y25S, D63S, G65M, L66R
B22: LK-VRB-24s (ligand, human, UniProt P15692-4 27-135, looked up)
chain: B1 chain with M18E, Y21L, Q22R, Y25S, D63S, G65M
B23: LK-VRB-10s (ligand, human, UniProt P15692-4 27-135, looked up)
chain: B1 chain with Y25S, D63S, G65M, L66R
B24: LK-VRB-13s (ligand, human, UniProt P15692-4 27-135, looked up)
chain: B1 chain with M18E, Y25S, D63S, G65M, L66R
B25: LK-VRB-17s (ligand, human, UniProt P15692-4 27-135, looked up)
chain: B1 chain with M18E, Y21L, Q22R, D63S, G65M, L66R
B26: LK-VRB-25s (ligand, human, UniProt P15692-4 27-135, looked up)
chain: B1 chain with M18E, Y21L, Q22R, Y25S, D63S, L66R
B27: LK-VRB-22s (ligand, human, UniProt P15692-4 27-135, looked up)
chain: B1 chain with M18E, Y21L, Q22R, Y25S, G65M
B28: LK-VRB-14s (ligand, human, UniProt P15692-4 27-135, looked up)
chain: B1 chain with Y21L, Q22R, D63S, G65M, L66R
B29: LK-VRB-15s (ligand, human, UniProt P15692-4 27-135, looked up)
chain: B1 chain with Y21L, Y25S, D63S, G65M, L66R
B30: LK-VRB-12s (ligand, human, UniProt P15692-4 27-135, looked up)
chain: B1 chain with M18E, Q22R, D63S, G65M, L66R

Numbering of substitutions follows the chain as printed.

T1 sequence (P17948 27-331 limits assumed): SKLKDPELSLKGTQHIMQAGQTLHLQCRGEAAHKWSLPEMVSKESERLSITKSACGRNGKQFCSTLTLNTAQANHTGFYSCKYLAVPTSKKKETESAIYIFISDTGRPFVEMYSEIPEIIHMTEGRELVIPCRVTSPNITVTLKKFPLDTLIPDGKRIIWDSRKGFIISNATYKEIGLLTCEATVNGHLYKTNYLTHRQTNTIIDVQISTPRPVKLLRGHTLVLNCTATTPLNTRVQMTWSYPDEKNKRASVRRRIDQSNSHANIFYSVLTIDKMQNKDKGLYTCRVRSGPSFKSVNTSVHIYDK
T2 sequence (P35968 20-327 limits assumed): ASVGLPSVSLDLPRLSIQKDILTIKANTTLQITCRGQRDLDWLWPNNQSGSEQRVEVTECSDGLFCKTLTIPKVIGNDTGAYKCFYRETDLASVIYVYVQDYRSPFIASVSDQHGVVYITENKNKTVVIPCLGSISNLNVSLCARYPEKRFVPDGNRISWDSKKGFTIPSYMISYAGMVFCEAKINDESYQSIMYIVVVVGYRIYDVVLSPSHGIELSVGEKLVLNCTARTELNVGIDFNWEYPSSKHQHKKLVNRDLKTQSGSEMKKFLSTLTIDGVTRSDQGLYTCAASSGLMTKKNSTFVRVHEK

The first test addresses T1, Flt-1 (1-3) monomer (UniProt P17948 27-331, limits assumed, biotin-labeled in the ELISA of Example 8).
T1 construct: domain: domains 1 to 3; Genentech reagent; also called Flt(1-3); domains 1 to 3 of Flt-1
The test can be described thus: competition ELISA: plate coated with VEGF (8-109), 100 pM biotin-labeled Flt1(1-3), serial dilutions of the competing VEGF (Example 8). On the procedure: (§1) After 1 hour, the plates were washed, and the bound protein stained with streptavidin horseradish peroxidase conjugate (Pharmacia) and assayed. Affinities were estimated as IC₅₀ values: the concentration of KDR(1-3) or Flt(1-3) that blocked 50% of protein binding.
Background: ELISA stands for enzyme-linked immunosorbent assay.
As for B1, the concentration for half-maximal inhibition (IC50) (commonly the concentration needed to halve the response being measured) turned out to be 6 nM.

In the case of B2, the “fold reduction in binding (IC50 variant / IC50 VEGF(1-109))” value was determined as 5 fold.

In the case of B3, the “fold reduction in binding (IC50 variant / IC50 VEGF(1-109))” value was determined as 1 fold.

Turning to B4, the “fold reduction in binding (IC50 variant / IC50 VEGF(1-109))” value is 8 fold.

As for B5, the “fold reduction in binding (IC50 variant / IC50 VEGF(1-109))” value was determined as 4 fold.

As to B6, the “fold reduction in binding (IC50 variant / IC50 VEGF(1-109))” value was 1 fold.

Consider B7, for which the “fold reduction in binding (IC50 variant / IC50 VEGF(1-109))” value came out at 15 fold.

On to B8, for which the “fold reduction in binding (IC50 variant / IC50 VEGF(1-109))” value worked out at 1 fold.

As for B9, the “fold reduction in binding (IC50 variant / IC50 VEGF(1-109))” value was determined as 3 fold.

With B10, the “fold reduction in binding (IC50 variant / IC50 VEGF(1-109))” value came out at 1 fold.

As for B11, the “fold reduction in binding (IC50 variant / IC50 VEGF(1-109))” value was determined as 1 fold.

For B12, the “fold reduction in binding (IC50 variant / IC50 VEGF(1-109))” value worked out at 1 fold.

With B13, the “fold reduction in binding (IC50 variant / IC50 VEGF(1-109))” value turned out to be 7 fold.

Take B14: the “fold reduction in binding (IC50 variant / IC50 VEGF(1-109))” value came to 3 fold.

A further test addresses T2, KDR (1-3) monomer (UniProt P35968 20-327, limits assumed, biotin-labeled in the ELISA of Example 8).
T2 construct: domain: domains 1 to 3; Genentech reagent; also called domains 1 to 3 of KDR
The test can be described thus: competition ELISA vs biotinylated VEGF (8-109), soluble KDR (1-3) captured by MAKD5. As for the experimental part: Receptor binding assays were performed in 96-well immunoplates (Maxisorp, Nunc-Immunoplate, Nalge Nunc International, Rochester, N.Y.). Each well was coated with 100 μl of a solution containing 8 μg/ml of a monoclonal antibody to KDR known as MAKD5 (Genentech, South San Francisco, Calif.) in 50 mM carbonate buffer at pH 9.6 and incubated at 4° C. overnight. The supernatant was discarded, the wells were washed three times in washing buffer (0.05% Tween 20 in PBS), and the plate was blocked (150 μl per well) with block buffer (0.5% BSA, 0.01% thimerosal in PBS) at room temperature for one hour. The supernatant was discarded, and the wells were washed.
Aliquots of this mixture (100 μl) were added to the precoated microtiter wells and the plate was incubated for 1 hour at room temperature. […] The wells were then incubated with 3,3′, 5,5′-tetramethyl benzidine (0.2 gram/liter; Kirkegaard & Perry Laboratories, Gaithersburg, Md.) for about 10 minutes at room temperature. Absorbance was read at 450 nm on a Vmax plate reader (Molecular Devices, Menlo Park, Calif.).
Titration curves were fit with a four-parameter nonlinear regression curve-fitting program (KaleidaGraph, Synergy Software, Reading, Pa.).
As to B15, the IC50 was found to be 7 nM and the “Relative Binding Affinity (ratio to native VEGF (8-109))” value was found to be 7 fold.

On to B16, for which the IC50 is 2 nM and the “Relative Binding Affinity (ratio to native VEGF (8-109))” value stood at 2 fold.

For B17, the concentration for half-maximal inhibition (IC50) amounted to 3 nM and the “Relative Binding Affinity (ratio to native VEGF (8-109))” value was 3 fold.

As to B18, the half-maximal inhibitory concentration (IC50) amounted to 2 nM and the “Relative Binding Affinity (ratio to native VEGF (8-109))” value is 2 fold.

Take B19: the IC50 is 11 nM and the “Relative Binding Affinity (ratio to native VEGF (8-109))” value stood at 11 fold.

With B20, the IC50 amounted to 23 nM and the “Relative Binding Affinity (ratio to native VEGF (8-109))” value was 23 fold.

For the molecule B21, the 50% inhibitory concentration (IC50) amounted to 0.6 nM and the “Relative Binding Affinity (ratio to native VEGF (8-109))” value was found to be 0.6 fold.

For B22, the IC50 is 10 nM and the “Relative Binding Affinity (ratio to native VEGF (8-109))” value was determined as 10 fold.

B23: the IC50 was found to be 0.5 nM and the “Relative Binding Affinity (ratio to native VEGF (8-109))” value is 0.5 fold.

As for B24, the half-inhibitory concentration (IC50) came to 14 nM and the “Relative Binding Affinity (ratio to native VEGF (8-109))” value turned out to be 14 fold.

With B25, the concentration for half-maximal inhibition (IC50) was 3 nM and the “Relative Binding Affinity (ratio to native VEGF (8-109))” value came out at 3 fold.

Consider B26, for which the 50% inhibitory concentration (IC50) turned out to be 4 nM and the “Relative Binding Affinity (ratio to native VEGF (8-109))” value stood at 4 fold.

For the molecule B27, the IC50 was 4 nM and the “Relative Binding Affinity (ratio to native VEGF (8-109))” value amounted to 4 fold.

As to B28, the IC50 amounted to 0.5 nM and the “Relative Binding Affinity (ratio to native VEGF (8-109))” value came out at 0.5 fold.

For the molecule B29, the IC50 worked out at 2 nM and the “Relative Binding Affinity (ratio to native VEGF (8-109))” value came out at 2 fold.

Regarding B30, the IC50 was 0.4 nM and the “Relative Binding Affinity (ratio to native VEGF (8-109))” value came out at 0.4 fold.

A further test deals with T2, KDR (1-3) monomer. The test can be described thus: competition ELISA: plate coated with VEGF (8-109), 100 pM biotin-labeled KDR(1-3), serial dilutions of the competing VEGF (Example 8). On the procedure: as §1
Turning to B1, the IC50 was determined as 10 nM.

B2: the “fold reduction in binding (IC50 variant / IC50 VEGF(1-109))” value stood at 10 fold.

Consider B3, for which the “fold reduction in binding (IC50 variant / IC50 VEGF(1-109))” value is 2 fold.

With B4, the “fold reduction in binding (IC50 variant / IC50 VEGF(1-109))” value was determined as 1 fold.

With B5, the “fold reduction in binding (IC50 variant / IC50 VEGF(1-109))” value was 96 fold.

On to B6, for which the “fold reduction in binding (IC50 variant / IC50 VEGF(1-109))” value was found to be 1 fold.

B7: the “fold reduction in binding (IC50 variant / IC50 VEGF(1-109))” value stood at 6 fold.

For the molecule B8, the “fold reduction in binding (IC50 variant / IC50 VEGF(1-109))” value is 1 fold.

For the molecule B9, the “fold reduction in binding (IC50 variant / IC50 VEGF(1-109))” value turned out to be 55 fold.

Consider B10, for which the “fold reduction in binding (IC50 variant / IC50 VEGF(1-109))” value stood at 1 fold.

For the molecule B11, the “fold reduction in binding (IC50 variant / IC50 VEGF(1-109))” value came to 1 fold.

On to B12, for which the “fold reduction in binding (IC50 variant / IC50 VEGF(1-109))” value is 1 fold.

B13: the “fold reduction in binding (IC50 variant / IC50 VEGF(1-109))” value turned out to be 89 fold.

In the case of B14, the “fold reduction in binding (IC50 variant / IC50 VEGF(1-109))” value was determined as 21 fold.
